From PMC5717197, “Mechanistic insight into TRIP13-catalyzed Mad2 structural transition and spindle checkpoint silencing” (Nature Communications, 2017)
Where a chain is given by its changes, count along the chain named. Blank lines part the entries; values can stand above or below the binder they belong to.

Key:
[1] = target: T1, His6-Mad2 (containing the C79S and C106S mutations) (human, UniProt Q13257 1-205, C79S | C106S); experiment: pull-down; Mad2 dissociation assay: MBP1 or Cdc20N coupled to SulfoLink resin, loaded with His6-Mad2 (0.5 mg/ml), washed, then TRIP13 and ΔN35-p31comet with 1 mM ATP for 30-60 min; Reaction Buffer (25 mM Tris pH 7.5, 200 mM NaCl, 10 mM MgCl2, 1 mM DTT, 5% glycerol, 0.05% Tween), room temperature; bound proteins by SDS-PAGE and Coomassie; conditions: both partners purified
T1 construct: Mad2, human; C79S and C106S to avoid disulfide formation in vitro; The His6 tag was not cleaved; also called C-Mad2; source: E. coli BL21 (DE3), purified (Ni-NTA, Resource Q, Superdex 200 Increase); not shown: His6, N-terminal, kept

[2] = target: the molecule itself; experiment: SEC; gel filtration column in the presence of ATP

T1 sequence (Q13257 whole entry C79S/C106S): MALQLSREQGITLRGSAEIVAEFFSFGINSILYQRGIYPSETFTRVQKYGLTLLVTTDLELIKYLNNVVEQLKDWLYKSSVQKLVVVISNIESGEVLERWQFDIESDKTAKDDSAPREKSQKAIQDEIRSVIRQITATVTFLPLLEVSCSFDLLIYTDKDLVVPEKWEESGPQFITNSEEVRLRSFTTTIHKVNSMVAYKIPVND

B2: TRIP13 wild type (enzyme, human, UniProt Q15645 1-432, looked up)
chain: MDEAVGDLKQALPCVAESPTVHVEVHQRGSSTAKKEDINLSVRKLLNRHNIVFGDYTWTEFDEPFLTRNVQSVSIIDTELKVKDSQPIDLSACTVALHIFQLNEDGPSSENLEEETENIIAANHWVLPAAEFHGLWDSLVYDVEVKSHLLDYVMTTLLFSDKNVNSNLITWNRVVLLHGPPGTGKTSLCKALAQKLTIRLSSRYRYGQLIEINSHSLFSKWFSESGKLVTKMFQKIQDLIDDKDALVFVLIDEVESLTAARNACRAGTEPSDAIRVVNAVLTQIDQIKRHSNVVILTTSNITEKIDVAFVDRADIKQYIGPPSAAAIFKIYLSCLEELMKCQIIYPRQQLLTLRELEMIGFIENNVSKLSLLLNDISRKSEGLSGRVLRKLPFLAHALYVQAPTVTIEGFLQALSLAVDKQFEERKKLAAYI
notes: TRIP13, human; its own AUC and gel filtration show no discrete oligomer; also called TRIP13 WT; source: E. coli BL21 (DE3), purified (Ni-NTA, TEV, Resource Q, Superdex 200); not shown: His6, N-terminal, cleaved
binding result [2]: binds

B3: TRIP13 G320A (enzyme, human, UniProt Q15645 1-432, looked up)
chain: B2 chain with G320A
notes: TRIP13, human; source: E. coli BL21 (DE3), purified (Ni-NTA, TEV, Resource Q, Superdex 200); not shown: His6, N-terminal, cleaved
binding result [2]: binds

Second part, the binder after the results:

binding result [1]: binds
B1: Cdc20N-His6 (residues 1-170 of human Cdc20) (domain or fragment, UniProt Q12834 1-170, looked up)
chain: MAQFAFESDLHSLLQLDAPIPNAPPARWQRKAKEAAGPAPSPMRAANRSHSAGRTPGRTPGKSSSKVQTTPSKPGGDRYIPHRSAAQMEVASFLLSKENQPENSQTPTKKEHQKAWALNLNGFDVEEAKILRLSGKPQNAPEGYQNRLKVLYSQKATPGSSRKTCRYIPS
notes: Cdc20, human, residues 1-170; Coupled to SulfoLink Coupling Resin in the bead assays; also called Cdc20 N-terminal 170-residue fragment; source: E. coli BL21 (DE3), purified from 8 M urea (Ni-NTA), dialysed

binding result [1]: binds
B4: MBP1 peptide (peptide)
peptide: SWYSYPPPQRAVC
notes: Coupled to SulfoLink Coupling Resin in the bead assays; source: synthetic peptide (Protein Chemistry Technology Core, UTSW)
